What was measured:
[1] = molecular target: LI PCNA (His-tagged mutant Xenopus PCNA), P18248
[2] = molecular target: WT His-tagged PCNA (recombinant Xenopus PCNA), P18248
[3] = molecular target: PK PCNA (P253A-K254A PCNA, His-tagged), P18248
[4] = molecular target: LIPK PCNA (L126A-I128A-P253A-K254A PCNA, His-tagged), P18248
[5] = molecular target: PCNA, endogenous, in Xenopus egg extract (HSS), P18248
PCNA, endogenous, in Xenopus egg extract (HSS), P18248, sequence (P18248 whole entry): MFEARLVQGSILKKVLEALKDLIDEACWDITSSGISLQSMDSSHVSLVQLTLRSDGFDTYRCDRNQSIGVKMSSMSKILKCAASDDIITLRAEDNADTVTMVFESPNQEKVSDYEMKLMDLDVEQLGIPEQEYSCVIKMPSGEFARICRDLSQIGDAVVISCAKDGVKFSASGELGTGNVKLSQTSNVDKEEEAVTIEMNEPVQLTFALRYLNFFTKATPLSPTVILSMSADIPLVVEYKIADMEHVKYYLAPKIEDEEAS

LIPK PCNA (L126A-I128A-P253A-K254A PCNA, His-tagged), P18248, sequence (P18248 whole entry L126A/I128A/P253A/K254A): as the sequence (P18248 whole entry) above, with L126A, I128A, P253A, K254A counted along it
LI PCNA (His-tagged mutant Xenopus PCNA), P18248, sequence (P18248 other isoform, or with tags, fused parts or gaps mutant): as the sequence (P18248 whole entry) above, with L126A, I128A counted along it
PK PCNA (P253A-K254A PCNA, His-tagged), P18248, sequence (P18248 whole entry P253A/K254A): as the sequence (P18248 whole entry) above, with P253A, K254A counted along it
WT His-tagged PCNA (recombinant Xenopus PCNA), P18248, sequence (P18248 whole entry): as the sequence (P18248 whole entry) above

B1: GST-APE2 (recombinant GST-tagged Xenopus APE2) (protein)
chain: MKIVSWNINGIRATRVGLKETLDSLDADIICLQETKVTRDLLDEPSAIVEGYNSYFSFSRVRSGYSGVATFCKSSTTPQAAEEGLSGVFCNRTGSVGCYGNTEQFLEEELQSLDQEGRAVLTQHRILNCEDKEETLTVINVYCPRADPEKPERKTYKLRFYHLLQTRAEAILQNGGHVIILGDVNTSHRPLDHCDPTDLETFEENPGRQWLNQFLGDPIPSQKGDSETVMPPSAGSGLFYDSFRYFHPTQKNAFTCWCSASGARQTNYGTRIDYILGNRELVESEFLDSVIMPEVEGSDHCPVKAFMKCQPIAANKCPPLCTKYLPEFAGRQQKLLQFLVKKENTLGNTTEESSELTGTPSFTEGADISTVRKRPSDKLNSTSKKKSKIVTKNGQGNLLSFFKPERQKLTMATECNPIEVPICKKEKTVQKDLQPATPAVKYNKPQTAFWKSLLKGPPPPPNCKGHSEPCVLRTVKKAGPNCGRQFYVCARPEGHSSNPQARCNFFLWLTKKAGCED
B1 was tested, and the “exonuclease activity on FAM-labeled gapped dsDNA (Type I resected products), purified proteins in vitro” value (“exonuclease activity” for short) [1] was “The gapped dsDNA was catalyzed into Type I resected products by recombinant APE2 with the presence of WT PCNA, but not LIPK PCNA, LI PCNA, or PK PCNA”, the “exonuclease activity” value [2] was “The gapped dsDNA was catalyzed into Type I resected products by recombinant APE2 with the presence of WT PCNA, but not LIPK PCNA, LI PCNA, or PK PCNA” and the “exonuclease activity” value [3] was “The gapped dsDNA was catalyzed into Type I resected products by recombinant APE2 with the presence of WT PCNA, but not LIPK PCNA, LI PCNA, or PK PCNA”. The “exonuclease activity” value [4] was “The gapped dsDNA was catalyzed into Type I resected products by recombinant APE2 with the presence of WT PCNA, but not LIPK PCNA, LI PCNA, or PK PCNA”.

B2: G483A-R484A Myc-APE2 (protein)
chain: MKIVSWNINGIRATRVGLKETLDSLDADIICLQETKVTRDLLDEPSAIVEGYNSYFSFSRVRSGYSGVATFCKSSTTPQAAEEGLSGVFCNRTGSVGCYGNTEQFLEEELQSLDQEGRAVLTQHRILNCEDKEETLTVINVYCPRADPEKPERKTYKLRFYHLLQTRAEAILQNGGHVIILGDVNTSHRPLDHCDPTDLETFEENPGRQWLNQFLGDPIPSQKGDSETVMPPSAGSGLFYDSFRYFHPTQKNAFTCWCSASGARQTNYGTRIDYILGNRELVESEFLDSVIMPEVEGSDHCPVKAFMKCQPIAANKCPPLCTKYLPEFAGRQQKLLQFLVKKENTLGNTTEESSELTGTPSFTEGADISTVRKRPSDKLNSTSKKKSKIVTKNGQGNLLSFFKPERQKLTMATECNPIEVPICKKEKTVQKDLQPATPAVKYNKPQTAFWKSLLKGPPPPPNCKGHSEPCVLRTVKKAGPNCAAQFYVCARPEGHSSNPQARCNFFLWLTKKAGCED
For B2, the “SSB-induced Chk1 phosphorylation in APE2-depleted HSS” value (shortened to “SSB-induced Chk1 phosphorylation”) [5] was “G483A-R484A APE2, which is deficient in interaction with ssDNA and PCNA CTM motif (FIGS. 12D and 12E), also failed to rescue the SSB-induced Chk1 phosphorylation in APE2-depleted HSS” and the “hydrogen peroxide-induced Chk1 phosphorylation in APE2-depleted LSS” value [5] was “VVT APE2, but not G483A-R484A APE2, rescued the hydrogen peroxide-induced Chk1 phosphorylation in APE2-depleted LSS system”.

B3: WT Myc-APE2 (recombinant Myc-tagged Xenopus APE2) (protein)
chain: MKIVSWNINGIRATRVGLKETLDSLDADIICLQETKVTRDLLDEPSAIVEGYNSYFSFSRVRSGYSGVATFCKSSTTPQAAEEGLSGVFCNRTGSVGCYGNTEQFLEEELQSLDQEGRAVLTQHRILNCEDKEETLTVINVYCPRADPEKPERKTYKLRFYHLLQTRAEAILQNGGHVIILGDVNTSHRPLDHCDPTDLETFEENPGRQWLNQFLGDPIPSQKGDSETVMPPSAGSGLFYDSFRYFHPTQKNAFTCWCSASGARQTNYGTRIDYILGNRELVESEFLDSVIMPEVEGSDHCPVKAFMKCQPIAANKCPPLCTKYLPEFAGRQQKLLQFLVKKENTLGNTTEESSELTGTPSFTEGADISTVRKRPSDKLNSTSKKKSKIVTKNGQGNLLSFFKPERQKLTMATECNPIEVPICKKEKTVQKDLQPATPAVKYNKPQTAFWKSLLKGPPPPPNCKGHSEPCVLRTVKKAGPNCGRQFYVCARPEGHSSNPQARCNFFLWLTKKAGCED
For B3, the “3'-5' SSB end resection of FAM-SSB in APE2-depleted HSS” value [5] was “VVT APE2 but not C470A APE2 rescued the deficiency of SSB end resection of FAM-SSB in APE2-depleted HSS”, the “SSB-induced Chk1 phosphorylation” value [5] was “WT, but not C470A, APE2 was found to rescue the SSB-induced Chk1 phosphorylation in APE2-depleted HSS” and the “hydrogen peroxide-induced Chk1 phosphorylation in APE2-depleted LSS” value [5] was “VVT APE2, but not G483A-R484A APE2, rescued the hydrogen peroxide-induced Chk1 phosphorylation in APE2-depleted LSS system”. For the same protein, the “recruitment of RPA32, ATR, ATRIP, TopBP1, and Rad9 to SSB plasmid in APE2-depleted HSS” value [5] was “WT APE2, but not C470A APE2, rescued the recruitment of RPA32, ATR, ATRIP, TopBP1, and Rad9 to SSB in APE2-depleted HSS”.

B4: C470A Myc-APE2 (protein)
chain: MKIVSWNINGIRATRVGLKETLDSLDADIICLQETKVTRDLLDEPSAIVEGYNSYFSFSRVRSGYSGVATFCKSSTTPQAAEEGLSGVFCNRTGSVGCYGNTEQFLEEELQSLDQEGRAVLTQHRILNCEDKEETLTVINVYCPRADPEKPERKTYKLRFYHLLQTRAEAILQNGGHVIILGDVNTSHRPLDHCDPTDLETFEENPGRQWLNQFLGDPIPSQKGDSETVMPPSAGSGLFYDSFRYFHPTQKNAFTCWCSASGARQTNYGTRIDYILGNRELVESEFLDSVIMPEVEGSDHCPVKAFMKCQPIAANKCPPLCTKYLPEFAGRQQKLLQFLVKKENTLGNTTEESSELTGTPSFTEGADISTVRKRPSDKLNSTSKKKSKIVTKNGQGNLLSFFKPERQKLTMATECNPIEVPICKKEKTVQKDLQPATPAVKYNKPQTAFWKSLLKGPPPPPNCKGHSEPAVLRTVKKAGPNCGRQFYVCARPEGHSSNPQARCNFFLWLTKKAGCED
For B4, the “3'-5' SSB end resection of FAM-SSB in APE2-depleted HSS” value [5] was “VVT APE2 but not C470A APE2 rescued the deficiency of SSB end resection of FAM-SSB in APE2-depleted HSS”, the “SSB-induced Chk1 phosphorylation” value [5] was “WT, but not C470A, APE2 was found to rescue the SSB-induced Chk1 phosphorylation in APE2-depleted HSS” and the “recruitment of RPA32, ATR, ATRIP, TopBP1, and Rad9 to SSB plasmid in APE2-depleted HSS” value [5] was “WT APE2, but not C470A APE2, rescued the recruitment of RPA32, ATR, ATRIP, TopBP1, and Rad9 to SSB in APE2-depleted HSS”.

From patent US20200017862
